Experimental findings from paper doi:10.1101/2020.05.24.113654 (bioRxiv, 2020) are described below.

The target in the assay is T1, Cre^Cat (interdomain linker and C-terminal catalytic domain of Cre recombinase, residues 127-343) (UniProt P06956 127-343).
T1 sequence (looked up): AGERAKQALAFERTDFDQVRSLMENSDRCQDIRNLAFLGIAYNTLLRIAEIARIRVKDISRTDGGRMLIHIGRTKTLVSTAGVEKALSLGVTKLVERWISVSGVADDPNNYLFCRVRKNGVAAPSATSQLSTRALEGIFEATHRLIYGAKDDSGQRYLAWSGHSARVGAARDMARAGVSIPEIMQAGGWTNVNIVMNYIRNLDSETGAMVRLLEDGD
The assay can be described thus: intermolecular PRE-NMR.

Substitutions are numbered along the chain they refer to. Names may count otherwise.

B1: MTSL tagged-Cre^Cat C155A/C240A/D343C (domain or fragment, UniProt P06956 127-343, looked up)
chain: T1 sequence (looked up) with C29A, C114A, D217C
modifications: MTSL paramagnetic spin probe on C-terminal residue C343
For B1, the binding result was “binds”.
